Source: the supplement of paper PMC10567573

B1: ANKRD9 (parent)
chain: VGAAGSARQELLGDRPRWQRLLGE
B2: KLHL14 (parent)
chain: NETGYLSSVECYNLETNEWRYVSS

Variants of: B1
Experiment: protein stability index of a GFP-peptide fusion (GPS, HEK-293T) (PSI 1-6); higher = more stable
Conditions: c terminus: a fixed tail appended
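Also: lentivirally expressed fusions sorted by FACS into six bins by GFP to DsRed ratio, PSI derived from sequencing read proportions per bin multiplied by bin number.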

Protein stability index, by site and new letter:
W18: A 4.38; P 4.98; E 4.45; H 4.14; Q 4.1; F 3.54; S 4.2; M 3.57; R 4.93; N 4.11; V 4.4; D 4.63; G 5.32; L 4.36; Y 3.78; T 4.63; K 4.64
R17: A 3.33; M 2.72; V 3; E 3.81; D 3.41; S 4.09; W 2.61; Q 3.47; N 3.29; K 3.53; F 1.94; G 3.5; P 4.29; T 3.43; I 2.83; Y 2.37; H 4.01; L 2.73
Q19: V 2.9; N 3.94; D 2.83; I 2.98; W 2.81; T 2.49; E 2.58; L 2.56; H 3.14; P 3.79; C 3.27; F 2.51; Y 2.59; G 2.94; M 3.26; A 2.15; S 2.91
L22: H 3.53; Y 2.42; T 3.69; A 3.43; E 3.87; G 3.31; S 3.96; K 3.57; N 3.13; W 2.96; Q 3.64; F 2.93; P 3.77; D 4.11; R 3.67; I 3.18; C 3.35; V 3.68; M 2.28
E24: Q 2.63; P 2.75; A 3; M 3.34; C 2.1; D 3.13; R 3.26; N 3.17; Y 2.37; T 3; I 2.27; L 2.38; K 3.7; F 2.68; H 2.96; W 2.33; G 3.2; V 2.45; S 2.77
R20: A 2.58; C 2.71; W 3.32; N 3.46; G 2.74; L 2.72; V 2.81; S 2.87; P 2.19; D 1.25; Y 2.62; F 3.28; Q 2.68; M 2.81; K 2.71; H 2.52; E 2.18; T 2.67; I 2.07
P16: Y 3.28; V 3.35; W 1.84; R 3.31; S 3.16
L21: W 3.23; S 4.52; G 2.93; V 3.67; F 2.68; K 4; A 3.28; D 4.72; I 2.93; R 3.11; E 4.67; Y 2.28; T 3.13; Q 3.32; H 2.86; C 3.75; N 3.71; M 3.03
G23: T 2.98; K 3.19; W 2.64; I 2.88; Y 2.88; M 3.23; D 3.84; C 2.88; F 2.71; H 2.61; N 3.12; A 3.1; P 3.22; L 3.58; R 2.99; Q 3.4; E 3.39; V 2.78; S 4.39

Variants of: B2
Experiment: as above
Conditions: c terminus: a fixed tail appended

Protein stability index, by site and new letter:
Y12: F 3.69
C11: D 4.58
L6: Q 3.69; K 3.89
E10: F 1.64
S23: Y 3.71
N13: T 3.24; E 2.79
S24: D 3.83
N1: F 2.63
G4: Y 2.46
L14: G 3.49
R20: V 2.32
Y21: W 3.5
S7: C 2.52; T 3.45
